This is an account of results in paper doi:10.1101/2024.12.23.630039 (2024).

The term Kd denotes the constant that tells how readily two partners part at equilibrium.

For experiment [1], the target named is T1, HLA-B*07:02 heavy chain with β2-microglobulin (MHC-I monomer, peptide groove as the binding site) (human | ).
The target in experiment [2] is T1, HLA-B*07:02 heavy chain with …. The experiment in a line: predicted/cited value [23].

Where two headings read alike, the source gives them in different places.

B1: high-affinity peptide for HLA-B*07:02 (Table 1) (peptide)
chain: RPELVRPAL
For B1, binding in experiment [1] was put at a Kd of 4.38 nM.

B2: temperature-sensitive template peptide for HLA-B*07:02 (RKELVRPAL) (peptide)
peptide: RKELVRPAL
In the case of B2, the Kd in experiment [2] is 4120 nM.
